Target: Recombinant carrier-free human βNGF (human, UniProt P01138 122-241)
Experiment: SPR; BIACORE; PDPN/Fc amine-coupled to a CM5 chip (6000 to 8000 RU); analyte injected at 5 μl/min; NGF at 1 μM; 20 °C; HBS-P (0.01 M Hepes pH 7.4/0.15 M NaCl/0.005% Surfactant P20); reference channel subtracted; regeneration with 1% heparin in PBS; 1:1 Langmuir fit, KD estimated by the steady-state affinity model
Conditions: both partners purified

Sequence of Recombinant carrier-free human βNGF (P01138 122-241): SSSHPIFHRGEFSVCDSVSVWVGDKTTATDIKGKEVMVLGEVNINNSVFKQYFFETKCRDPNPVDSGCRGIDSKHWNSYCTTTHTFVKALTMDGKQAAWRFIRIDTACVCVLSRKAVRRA

Kd: ~100 nM
B1: Human podoplanin extracellular domain/Fc chimera (Fc fusion, UniProt Q86YL7 23-131, looked up)
chain: ASTGQPEDDTETTGLEGGVAMPGAEDDVVTPGTSEDRYKSGLTTLVATSVNSVTGIRIEDLPTSESTVHAQEQSPSATASNVATSHSTEKVDGDTQTTVEKDGLSTVTL

From PMC5125287 (Annals of Medicine, 2016)
